{"source": "paper PMC4945409", "target": "wild-type KDPG aldolase scaffold (1wa3)", "experiment": "SEC", "data": [{"substance": "wild-type KDPG aldolase scaffold (1wa3) (enzyme)", "values": [{"measurement": "stoichiometry N", "value": 3}]}]}
